The data set deals with the molecule itself. Put plainly: SEC; gel filtration of the purified samples on a HiPrep 26/60 Sephacryl S-200 HR column, used to separate the monomeric fraction. (In general: In gel filtration, larger molecules generally elute earlier.)

B1: FAD synthetase from Corynebacterium ammoniagenes (wild type) (enzyme)
chain: MDIWYGTAAVPKDLDNSAVTIGVFDGVHRGHQKLINATVEKAREVGAKAIMVTFDPHPVSVFLPRRAPLGITTLAERFALAESFGIDGVLVIDFTRELSGTSPEKYVEFLLEDTLHASHVVVGANFTFGENAAGTADSLRQICQSRLTVDVIDLLDDEGVRISSTTVREFLSEGDVARANWALGRHFYVTGPVVRGAGRGGKELGFPTANQYFHDTVALPADGVYAGWLTILPTEAPVSGNMEPEVAYAAAISVGTNPTFGDEQRSVESFVLDRDADLYGHDVKVEFVDHVRAMEKFDSVEQLLEVMAKDVQKTRTLLAQDVQAHKMAPETYFLQAES
notes: FAD synthetase (bifunctional RFK/FMNAT) of Corynebacterium ammoniagenes; N-terminal FMNAT-module residues 1-186 and C-terminal RFK-module residues 187-338; also called CaFADS; WT CaFADS; source: gel filtration on Sephacryl S-200 HR
For B1, the binding result is recorded as “binds”.
